Results taken from PMC11297306 (Nature Communications, 2024).

Molecular target: EEEV virus-like particles (strain PE6) (eastern equine encephalitis virus, strain PE6)
Experiment: BLI

Row | Substance | Kd [µM]
1 | VLDLRLA1-Fc fusion protein (from UniProt P98155-1 31-69) | 15.5
2 | VLDLRLBD-Fc fusion protein (from UniProt P98155-1 31-355) | 0.0021
